Entries after “also recorded” stand apart in the source; their conditions may differ. Where two headings read alike, the source gives them in different places.

One series concerns the target T1, GCase ProSNA constructs (Homo sapiens, UniProt P04062).
T1 sequence (P04062 40-536): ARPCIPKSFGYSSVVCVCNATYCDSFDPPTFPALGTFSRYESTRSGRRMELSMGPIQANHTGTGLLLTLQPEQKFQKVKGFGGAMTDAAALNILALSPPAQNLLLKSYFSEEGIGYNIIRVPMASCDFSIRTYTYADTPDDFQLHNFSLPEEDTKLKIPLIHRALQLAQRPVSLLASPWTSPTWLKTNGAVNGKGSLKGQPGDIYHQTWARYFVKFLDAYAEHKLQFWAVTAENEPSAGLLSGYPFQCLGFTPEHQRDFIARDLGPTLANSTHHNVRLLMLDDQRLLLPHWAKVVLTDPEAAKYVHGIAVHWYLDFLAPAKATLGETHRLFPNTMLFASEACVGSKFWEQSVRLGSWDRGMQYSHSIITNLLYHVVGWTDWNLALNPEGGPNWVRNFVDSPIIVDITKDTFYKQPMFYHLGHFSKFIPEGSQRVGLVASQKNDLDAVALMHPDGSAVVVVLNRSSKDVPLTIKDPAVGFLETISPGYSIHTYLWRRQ
The note with it: co-incubation / co-assembly of activator with GCase ProSNA construct.

Another series deals with native GCase protein (Homo sapiens, UniProt P04062). The note with it: GCase 1.9 mg/mL, quetiapine introduced 30 minutes prior to substrate, FIG. 10. The procedure:
The purpose behind enzyme replacement therapy (ERT) is to replace protein that is either absent or dysregulated. […] This assay was completed using the same fluorometric kit described above, with quetiapine being introduced 30 minutes prior to the GCase substrate.

The test system of series [1] is α-synuclein protein aggregates. The note with it: cited from earlier work.
A further series addresses T2, GCase (Homo sapiens, UniProt P04062).
T2 construct: purchased GenScript; host or cells: CHO expression system
T2 sequence (P04062 40-536): T1 sequence (P04062 40-536)
Kind of series: fluorometric GCase activity assay kit (Abcam) on GCase constructs. The note with it: constructs at 0.24 mg/mL, GCase substrate 30 minutes at 37° C., FIG. 9; for protein activity after functionalization, compared with unmodified GCase: fluorescence Ex/Em=360/445. The series is classed as biochemical. The procedure: Upon interaction with active GCase, this substrate releases a fluorophore detectable using a plate reader at Ex/Em=360/445 nm.
Following the synthesis process, a comprehensive investigation into the impact of synthesis on protein activity was conducted. To assess this, we employed a fluorometric GCase activity assay kit (Abcam), using a synthetic substrate-4-Methylumbelliferyl β-D-glucopyranoside. Upon interaction with active GCase, this substrate releases a fluorophore detectable using a plate reader at Ex/Em=360/445 nm. The focus extended to evaluating the effects of PEGylation on GCase, along with modifications involving univalent (sole presence of the transferrin aptamer) or bivalent (co-presence of both transferrin and folate) DNA ligands. By using the protocol outlined in this assay, the aim was to understand and analyze the variations in protein activity resulting from these modifications. Briefly, GCase constructs (all at 0.24 mg/mL) were reacted with GCase substrate for 30 minutes at 37° C. They were then measured for fluorescence intensity at Ex/Em=360/445. […] This was a key finding as PEGylation is currently one of the most used methods to improve protein delivery.

The test system of series [2] is neurons (dopaminergic), astrocytes, and microglia. The series can be described thus: flow cytometry uptake into neuronal cell types. The format is cell-based. The text has this: The ability of the GCase ProSNA constructs to be taken up into cells will be assessed. To investigate their uptake potential, flow cytometry is used as a method for determining the percent uptake of the constructs compared to control groups (unmodified GCase protein, linear bivalent DNA ligand, GCase-Transferrin aptamer, and GCase-Folic Acid). Constructs are synthesized as described previously, including the fluorescent tagging the GCase protein core as well as including a Cyanine3 dye into the aptamer sequence (Folate-SEQ ID NO: 1-Cy3-DBCO dT). Once prepared, the constructs are used to treat different mono-populations of different neuronal cell types, including neurons (dopaminergic), astrocytes, and microglia, to evaluate their uptake ability. In all cases, a live dead stain is used to determine percent uptake in viable populations. Furthermore, uptake across different time points is assessed to determine the rates at which the constructs are endocytosed and processed by the different cell types.
Background: In flow cytometry, cells or beads pass a laser one at a time.

The subject of series [3] is Human endothelial cells cultured alone or with microglial and astrocyte cells on a transwell membrane.
Experimental: The ability of the construct to pass the BBB is also assessed. […] To investigate this an in vitro transwell model of transcytosis is used. Human endothelial cells are cultured alone or in concert with microglial and astrocyte cells on a transwell membrane. Once confluent, the constructs are added to the apical side of the insert and their transcytosis through the cell monolayer to the basolateral side of the insert is quantified by fluorescence.
For series [4] the following is noted: mouse, in vivo.
Experimental: Fluorescently labeled constructs are administered to mice by different routes of injection including intravenously by way of retroorbital or tail vein injection, as well as intrathecally. At set time points the mice are imaged using IVIS to track the biodistribution patterns.

Text for GCase ProSNA constructs: Next, the assay is repeated with generated GCase ProSNA constructs to investigate whether some of the activity lost during activation can be recovered.

For `Nc1c(Br)cc(Br)cc1CN[C@H]1CC[C@H](O)CC1` [Ambroxol], the “GCase activity of ProSNA constructs with small molecule activator” value on GCase ProSNA constructs was “elevation in enzyme activity; also recorded: partial recovery of GCase activity”.
Turning to `OCCOCCN1CCN(C2=Nc3ccccc3Sc3ccccc32)CC1` [quetiapine], the “activity of the native GCase protein” value on native GCase protein (5 μM quetiapine) and on native GCase protein (10 μM quetiapine) was “sufficient to increase the activity of the native protein” throughout. In addition, the “GCase activity of ProSNA constructs with small molecule activator” value on GCase ProSNA constructs was “elevation in enzyme activity; also recorded: partial recovery of GCase activity”. In addition, the “presence of α-synuclein protein aggregates” value in series [1] is “reduce the presence of α-synuclein protein aggregates”.

B1: Bivalent ProSNA: GCase protein functionalized with the bivalent ligand (folate modified transferrin aptamer), roughly 14-18 ligands per protein (conjugate, UniProt P04062 40-536, looked up)
Lysosomal acid …: T1 sequence (P04062 40-536)
modifications: folate-modified transferrin aptamer shell, 14-18 ligands
notes: GCase protein functionalized with the bivalent ligand (folate modified transferrin aptamer), roughly 14-18 ligands per protein
For the molecule B1, in the series with GCase, the “protein activity after functionalization, compared with unmodified GCase” value is reported as “functionalization does impact protein activity; also recorded: reduction of overall activity”; the “protein activity, PEGylated protein versus ProSNA constructs” value was “significant increase in activity”; the “protein activity, univalent versus bivalent constructs” value was “no significant difference between the univalent and bivalent variations; also recorded: no significant difference between the uni- and bivalent constructs”. Further, the “rates of uptake across time points” value in series [2] (different time points) is recorded as “highest at shorter time points”. Also, in series [2] (neurons (dopaminergic), astrocytes, microglia, flow cytometry), the “uptake into cells compared to control groups” value is “enhance its uptake into all cell types”. Besides, in series [3], the “rate of transcytosis across the blood-brain barrier” value was “significant increase in the rate of transcytosis across the blood-brain barrier was observed” and the “rate of transcytosis compared to control groups” value is on record as “higher rate of transcytosis when compared to control groups”. Further, the “biodistribution (localization to the brain space)” value in series [4] is recorded as “localize to the brain space in higher concentrations when compared to control groups”.

B2: PEGylated protein: GCase after PEGylation, comparator in the activity assay (conjugate, UniProt P04062 40-536, looked up)
Lysosomal acid …: T1 sequence (P04062 40-536)
modifications: PEGylated
Take B2: the “protein activity, PEGylated protein versus ProSNA constructs” value in the series with GCase is “significant increase in activity when comparing the PEGylated protein to both ProSNA constructs”.

B3: Univalent ProSNA: GCase protein functionalized with only the transferrin aptamer (conjugate, UniProt P04062 40-536, looked up)
Lysosomal acid …: T1 sequence (P04062 40-536)
modifications: transferrin aptamer DNA shell
Consider B3, for which, in the series with GCase, the “protein activity after functionalization, compared with unmodified GCase” value is “functionalization does impact protein activity”; the “protein activity, PEGylated protein versus ProSNA constructs” value is listed as “significant increase in activity”; the “protein activity, univalent versus bivalent constructs” value is “no significant difference between the univalent and bivalent variations; also recorded: no significant difference between the uni- and bivalent constructs”.

The values above are taken from patent US20260224711A1, “ENHANCING BRAIN PERMEABILITY AND ACTIVITY OF GLUCOSYLCERAMIDASE (GCase) PROSNA FOR NEURODEGENERATIVE DISEASES” (NORTHWESTERN UNIVERSITY, priority 2023, published 2026).
